Source: paper doi:10.1101/2025.08.21.671446 (bioRxiv, 2025)
Where “and” joins values, the source holds several entries; their conditions need not be identical. Equal entries are not always repeated. Where two headings read alike, the source gives them in different places.

How the values were obtained:
MoyR [1] = target: T1, MoyR (Mycobacterium tuberculosis H37Rv, UniProt O86331 1-269); assay: EMSA
T1 sequence: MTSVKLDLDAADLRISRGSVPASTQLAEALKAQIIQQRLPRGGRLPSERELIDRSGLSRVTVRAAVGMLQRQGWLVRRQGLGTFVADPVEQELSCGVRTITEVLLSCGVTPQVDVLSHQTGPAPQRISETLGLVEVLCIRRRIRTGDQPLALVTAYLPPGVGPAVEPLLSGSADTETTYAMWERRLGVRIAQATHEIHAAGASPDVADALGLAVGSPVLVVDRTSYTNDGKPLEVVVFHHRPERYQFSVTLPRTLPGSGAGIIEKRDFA

MoyR [2] = target: T1, MoyR; assay: EMSA; remark: listed apart in the source
SEC [3] = target: the molecule itself; assay: SEC
SEC [4] = target: the molecule itself; assay: SEC; remark: listed apart in the source
MoyR [5] = target: T1, MoyR; assay: EMSA; remark: listed apart in the source

B1: moyOf4 (dsDNA)
DNA 1: TAGCAGCGGAAGAAGGTCA
DNA 2: TGACCTTCTTCCGCTGCTA
binding result (MoyR [1]): no binding

B2: moyOf1 (47 bp) (dsDNA)
DNA 1: AGCTTGACAGATGTCATAAGACGTATTAAAACGTCTTATACTCACCA
DNA 2: TGGTGAGTATAAGACGTTTTAATACGTCTTATGACATCTGTCAAGCT
Kd (MoyR [2]): 16.6 nM

B3: MoyR (Rv0792c), GntR family (HutC subfamily) monooxygenase regulator of Mycobacterium tuberculosis (natural protein)
chain: MTSVKLDLDAADLRISRGSVPASTQLAEALKAQIIQQRLPRGGRLPSERELIDRSGLSRVTVRAAVGMLQRQGWLVRRQGLGTFVADPVEQELSCGVRTITEVLLSCGVTPQVDVLSHQTGPAPQRISETLGLVEVLCIRRRIRTGDQPLALVTAYLPPGVGPAVEPLLSGSADTETTYAMWERRLGVRIAQATHEIHAAGASPDVADALGLAVGSPVLVVDRTSYTNDGKPLEVVVFHHRPERYQFSVTLPRTLPGSGAGIIEKRDFA
stoichiometry N (SEC [3]): 2
stoichiometry N (SEC [4]): 4 and 6

B4: moyOf6 (20 bp) (dsDNA)
DNA 1: AGCTTGACAGATGTCATAAG
DNA 2: CTTATGACATCTGTCAAGCT
binding result (MoyR [5]): no binding
